Assay results reported in the supplement of paper PMC7125110.
± gives the standard error. Fewer inactive variants are shown than the library holds.

B1: glmS ribozyme (parent)
chain: AUAAAAGCGCCAGAACUACAGAAAUGUAGUUGACGAGGAGGAGGUUUAUCGAAUUUUCGGCGGAUGCCUCCAAA

Assays:
Conditions in all cases: with glucosamine-6-phosphate
glucosamine-6-phosphate [1] = variants of: B1; assay: self-cleavage kobs at 40 uM GlcN6P; higher = faster cleavage; RNA array
Outline: (§1)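 E. coli RNA polymerase transcribed barcoded ribozyme variants in situ on sequenced MiSeq chips, which were tracked via a hybridised Cy3 probe at 37 °C. Tiles were imaged over ~14 h after glucosamine-6-phosphate (40 μM to 10 mM) in HEPES/KCl/Mg(OAc)2 buffer was flowed in. Normalised per-tile medians were fit to one- or two-exponential decays for kobs, and kcat and KM came from weighted Michaelis–Menten fits.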

glucosamine-6-phosphate [2] = variants of: B1; assay: self-cleavage kobs at 10000 uM GlcN6P; higher = faster cleavage; RNA array
Outline: as §1

glucosamine-6-phosphate [3] = variants of: B1; assay: self-cleavage kobs at 160 uM GlcN6P; higher = faster cleavage; RNA array
Outline: as §1

glucosamine-6-phosphate [4] = variants of: B1; assay: self-cleavage kobs at 640 uM GlcN6P; higher = faster cleavage; RNA array
Outline: as §1

glucosamine-6-phosphate [5] = variants of: B1; assay: self-cleavage kobs at 2500 uM GlcN6P; higher = faster cleavage; RNA array
Outline: as §1

Variant | self-cleavage kobs at 40 uM GlcN6P (glucosamine-6-phosphate [1]) [s⁻¹] | self-cleavage kobs at 10000 uM GlcN6P (glucosamine-6-phosphate [2]) [s⁻¹] | self-cleavage kobs at 160 uM GlcN6P (glucosamine-6-phosphate [3]) [s⁻¹] | self-cleavage kobs at 640 uM GlcN6P (glucosamine-6-phosphate [4]) [s⁻¹] | self-cleavage kobs at 2500 uM GlcN6P (glucosamine-6-phosphate [5]) [s⁻¹]
C10A G40U G41A C70A | < 1e-05 | < 1e-05 |  |  | 
A6G U57A | < 1e-05 |  | < 1e-05 | < 1e-05 | 
C16U A42U G62A C67A | < 1e-05 | < 1e-05 |  |  | 
G9A A14U A39G | < 1e-05 |  |  |  | < 1e-05
C8G C50G A53G A64G | 0.000149 ± 6.6e-05 |  |  |  | 
A6G A42U A64G | < 1e-05 | < 1e-05 |  | < 1e-05 | < 1e-05
A36G G44U U45C G51A G63C U69G C70G | < 1e-05 | < 1e-05 |  |  | 
G29U G41A C71G | < 1e-05 |  |  |  | 
A14G A36U G43U | < 1e-05 | < 1e-05 |  |  | 
G29U G51C | < 1e-05 | < 1e-05 |  | < 1e-05 | 
G62A A64U | < 1e-05 | < 1e-05 |  | < 1e-05 | 
G32A U57G | < 1e-05 |  |  |  | 
G35A G43U | < 1e-05 | < 1e-05 | < 1e-05 | < 1e-05 | < 1e-05
C11A G40U G41U G60C U65C | < 1e-05 | < 1e-05 |  |  | 
C34U A64C | < 1e-05 | < 1e-05 | < 1e-05 |  | 
G40U G63C | < 1e-05 | < 1e-05 | < 1e-05 | < 1e-05 | < 1e-05
A48U U49C | < 1e-05 | < 1e-05 | < 1e-05 |  | < 1e-05
A33U C61U C70U | < 1e-05 |  |  |  | < 1e-05
G41C C50U | < 1e-05 | < 1e-05 |  | < 1e-05 | < 1e-05
G7C G35U U54G | < 1e-05 | < 1e-05 |  |  | < 1e-05
C34U G59U | < 1e-05 | < 1e-05 | < 1e-05 | < 1e-05 | < 1e-05
C34U G59C | < 1e-05 | < 1e-05 | < 1e-05 | < 1e-05 | < 1e-05
G44C U65G | < 1e-05 |  | < 1e-05 | < 1e-05 | 
G40U A48G G63U | < 1e-05 | < 1e-05 | < 1e-05 | < 1e-05 | 

Variant | self-cleavage kobs at 40 uM GlcN6P (glucosamine-6-phosphate [1]) [s⁻¹] | self-cleavage kobs at 10000 uM GlcN6P (glucosamine-6-phosphate [2]) [s⁻¹] | self-cleavage kobs at 160 uM GlcN6P (glucosamine-6-phosphate [3]) [s⁻¹] | self-cleavage kobs at 640 uM GlcN6P (glucosamine-6-phosphate [4]) [s⁻¹] | self-cleavage kobs at 2500 uM GlcN6P (glucosamine-6-phosphate [5]) [s⁻¹]
A53U C70U | 0.000741 ± 6.7e-05 | 0.0335 ± 0.0084 | 0.00102 ± 0.00023 | 0.00682 ± 0.0013 | 0.00471 ± 0.0013
A42C C61G | < 1e-05 |  | < 1e-05 | < 1e-05 | < 1e-05
G29U A42G U56C G63A | < 1e-05 | < 1e-05 |  |  | 
C34U C58G U65G C70A | 0.000236 ± 8.2e-05 | 0.000376 ± 0.00015 |  | 0.000187 ± 7.4e-05 | 
G37C G59C A64G C68A | < 1e-05 |  | < 1e-05 |  | 
G32C U49G | < 1e-05 |  | < 1e-05 | < 1e-05 | 
G13A U31A A48C C50U G60U C67A | < 1e-05 | < 1e-05 |  |  | 
C11A A48G | < 1e-05 |  | < 1e-05 | < 1e-05 | < 1e-05
A52U G60A | < 1e-05 | < 1e-05 | < 1e-05 | < 1e-05 | 
A12U A15G A39G | 0.00105 ± 0.00021 | 0.0688 ± 0.023 |  |  | 
A14G A15G A33G G40U | < 1e-05 | < 1e-05 |  | < 1e-05 | 
G7U G9C G35C A36U U49A U56A | < 1e-05 |  |  |  | 
A42U G62U | < 1e-05 |  | < 1e-05 | < 1e-05 | < 1e-05
A48G A64G | < 1e-05 | 9.59e-05 ± 2.5e-05 |  |  | 7.81e-05 ± 2.4e-05
G7U G29A A48G | < 1e-05 | < 1e-05 |  |  | 
A1G | 0.00124 ± 0.00034 | 0.0405 ± 0.014 |  |  | 
G63U U65G | < 1e-05 | < 1e-05 | < 1e-05 | < 1e-05 | < 1e-05
G9A G29A U31A G35U A36C C70U | < 1e-05 | < 1e-05 |  |  | 
C34G G62U | < 1e-05 | < 1e-05 |  |  | < 1e-05
U30C U45G | < 1e-05 |  | < 1e-05 |  | 
A14C A15U G51C | < 1e-05 |  |  |  | 
A6U A12C U45A A52C | < 1e-05 | < 1e-05 |  |  | < 1e-05
A48C C70A | < 1e-05 |  |  | < 1e-05 | 
U31C A39U U54C C71U | 5.15e-05 ± 1.1e-05 | 0.00213 ± 0.00023 |  |  | 0.000671 ± 0.00024

Variant | self-cleavage kobs at 40 uM GlcN6P (glucosamine-6-phosphate [1]) [s⁻¹] | self-cleavage kobs at 10000 uM GlcN6P (glucosamine-6-phosphate [2]) [s⁻¹] | self-cleavage kobs at 160 uM GlcN6P (glucosamine-6-phosphate [3]) [s⁻¹] | self-cleavage kobs at 640 uM GlcN6P (glucosamine-6-phosphate [4]) [s⁻¹] | self-cleavage kobs at 2500 uM GlcN6P (glucosamine-6-phosphate [5]) [s⁻¹]
G37U A39U C70G | < 1e-05 |  |  |  | 
C8G U30A | < 1e-05 | < 1e-05 | < 1e-05 | < 1e-05 | 
G13C U31G A48U | < 1e-05 |  |  |  | 
A15G U54A G62C U65A | < 1e-05 | < 1e-05 |  | < 1e-05 | < 1e-05
G9A A14C G41U U55C | < 1e-05 |  |  |  | 
A12U U31C G41A G60U | < 1e-05 |  |  |  | 
A15C G51A | < 1e-05 | < 1e-05 | < 1e-05 |  | 
U45A G51A | < 1e-05 |  | < 1e-05 |  | 
C10G G35U A39U | < 1e-05 |  |  |  | 
G35A A64G C70G | < 1e-05 | < 1e-05 |  |  | 
C10U G35U C67U | < 1e-05 |  |  |  | 
G13A U45C A64G | < 1e-05 |  |  |  | 
A6U A12U G43A U47G | < 1e-05 |  |  |  | 
A6C G51U U56A | < 1e-05 |  |  |  | 
U47A A52C | < 1e-05 |  |  |  | 
A6U A36G A64U | < 1e-05 | < 1e-05 | < 1e-05 | < 1e-05 | < 1e-05
A39U A42G U56G A64C | < 1e-05 | 4.69e-05 ± 1.8e-05 |  |  | 
U31G U49G C50G | < 1e-05 |  |  |  | 
A14G U47G | 0.00069 ± 9.9e-05 | 0.0324 ± 0.0073 | 0.00132 ± 0.0004 | 0.00356 ± 0.00073 | 0.0139 ± 0.0037
A48C C68A | < 1e-05 | < 1e-05 |  |  | 
A6G C61A | < 1e-05 | < 1e-05 |  |  | < 1e-05
C11A U69G | 5.85e-05 ± 9.2e-06 | 5.17e-05 ± 1.1e-05 | 0.000398 ± 0.00018 | 0.000166 ± 4.5e-05 | 
A15U A39U U46A | < 1e-05 |  |  |  | 
A6C C8G | < 1e-05 | < 1e-05 |  | < 1e-05 | < 1e-05

Variant | self-cleavage kobs at 40 uM GlcN6P (glucosamine-6-phosphate [1]) [s⁻¹] | self-cleavage kobs at 10000 uM GlcN6P (glucosamine-6-phosphate [2]) [s⁻¹] | self-cleavage kobs at 160 uM GlcN6P (glucosamine-6-phosphate [3]) [s⁻¹] | self-cleavage kobs at 640 uM GlcN6P (glucosamine-6-phosphate [4]) [s⁻¹] | self-cleavage kobs at 2500 uM GlcN6P (glucosamine-6-phosphate [5]) [s⁻¹]
G32C G43C G51U | < 1e-05 | < 1e-05 |  |  | 
G40A U45G | 5.96e-05 ± 1.5e-05 | 0.000145 ± 3.5e-05 |  | 0.000563 ± 0.00021 | 0.000133 ± 4.2e-05
G13C G60A | < 1e-05 | < 1e-05 | < 1e-05 | < 1e-05 | < 1e-05
A48G C50G C61A | 9.98e-05 ± 2.4e-05 | 6.27e-05 ± 1.9e-05 |  |  | 
C34U A42C | < 1e-05 | < 1e-05 |  | < 1e-05 | < 1e-05
G9C G13C G35C | < 1e-05 |  |  | < 1e-05 | 
A6G G9A G38A G41A U57A | < 1e-05 |  | < 1e-05 | < 1e-05 | < 1e-05
A42U G60U | < 1e-05 |  | < 1e-05 | < 1e-05 | 
G7U A14U | < 1e-05 | < 1e-05 | < 1e-05 | < 1e-05 | 
C10G G35A | < 1e-05 |  | < 1e-05 | < 1e-05 | 
G37A U57C G59C | < 1e-05 | < 1e-05 |  |  | 
A15G C50U G60A A64C | < 1e-05 |  |  |  | 
A6G G60A | < 1e-05 | < 1e-05 | < 1e-05 | < 1e-05 | < 1e-05
A15U G60U | < 1e-05 | < 1e-05 | < 1e-05 | < 1e-05 | < 1e-05
A12C U54A | 0.000707 ± 7e-05 | 0.0301 ± 0.0049 | 0.00199 ± 0.00034 | 0.0159 ± 0.0035 | 0.00841 ± 0.0015
G32C G40A | < 1e-05 | 1.99e-05 ± 7.3e-06 | < 1e-05 |  | 
A33G G40U G43A U49A C58U | < 1e-05 | < 1e-05 |  |  | 
U31C U57G | < 1e-05 |  |  |  | 
A15C G37A G41C U69G | < 1e-05 | < 1e-05 |  |  | 
A12U G29U G35C U49A C70A C71G | < 1e-05 |  | < 1e-05 |  | 
G43U G44A A48G C58A U69A C71G | < 1e-05 | < 1e-05 | < 1e-05 |  | < 1e-05
U31C G66C C67G | < 1e-05 |  |  |  | 
